{"source": "the nanobody polyreactivity screen of Harvey et al. (2022)"}
{"test": "yeast display, Sf9 membrane polyspecificity reagent, FACS + sequencing; frameworks hold sequencing errors", "outline": "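Synthetic nanobody libraries on Saccharomyces cerevisiae BJ5465 were galactose-induced for 36–48 hours, stained 1 hour at 4 °C with 10% biotinylated, detergent-solubilized Sf9 membrane reagent and enriched on streptavidin microbeads. FACS then separated cells into low and high (top ~1%) gates by anti-HA (expression) and streptavidin (reagent binding) fluorescence. Genes were colony-PCR amplified, MiSeq 2 × 250 sequenced and CDR-length filtered. A clone's polyreactivity label is that of its gate of origin.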"}
{"sequence": "QVQLVESGGGLVQAGGSLRLSCAASGRIFDIYGMGWYRQAPGKERELVAAITSGGSTYYADSVKGRFTISRDNAKNTVYLQMNSLKPEDTAVYYCAADSVLLKDTGYDYWGQGTQVTVSS", "polyreactivity (PSR sort gate)": "low polyreactivity"}
{"sequence": "QVQLVESGGGLVQAGGSLRLSCAASGRIFDKYAMGWYRQAPGKERELVAAITRSGGRTYYADSVKGRFTISRDNAKNTVYLQMNSLKPEDTAVYYCAARYVSRFDWGQGTQVTVSS", "polyreactivity (PSR sort gate)": "high polyreactivity"}
{"sequence": "QVQLVESGGGLVQAGGSLRLSCAASGRIFDLNAMGWYRQAPGKERELVAAISYSGDRTYYADSVKGRFTISRDNAKNTVYLQMNSLKPEDTAVYYCNVRKTWYGYSVTGRYDYWGQGTQVTVSS", "polyreactivity (PSR sort gate)": "low polyreactivity"}
{"sequence": "QVQLVESGGGLVQAGGSLRLSCAASGRIFDPYAMGGYRQAPGKERELVANITLRGGITYYADSVKGRFTISRDNAKNTVYLQMNSLKPEDTAVYDCNADGYPDVGAGTYGYWGQGTQVTVSS", "polyreactivity (PSR sort gate)": "low polyreactivity"}
{"sequence": "QVQLVESGGGLVQAGGSLRLSCAASGRIFDPYAMGWYRQAPGKERELVATITRSGGSTYYADSVKGRFTISRDNAKNTVYLQMNSLKPEDTAVYYCAVGDGFEYDWGQGTQVTVSS", "polyreactivity (PSR sort gate)": "low polyreactivity"}
{"sequence": "QVQLVESGGGLVQAGGSLRLSCAASGRIFDQYAMGWYRQAPGKERELVAAITSGGSTYYADSVKGRFTISRDNAKNTVYLQMNSLKPEDTAVYYCAAEWQWYGYVLYKYYYWGQGTQVTVSS", "polyreactivity (PSR sort gate)": "high polyreactivity"}
{"sequence": "QVQLVESGGGLVQAGGSLRLSCAASGRIFDRNAMGWYRPAPGKERELVAAISRRGGSTYYADSVKGRITISRDNAKNTVYLQMNSLKPEDTAVYYCAARFLYRSVKMDYWGQGTQVTVSS", "polyreactivity (PSR sort gate)": "high polyreactivity"}
{"sequence": "QVQLVESGGGLVQAGGSLRLSCAASGRIFDRNAMGWYRQAPGKERELVAAISWSGGRTYYADSVKGRFTISRDNAKNTVYLQMNSLKPEDTAVYYCAADHYPWWAWEFDYWGQGTQVTVSS", "polyreactivity (PSR sort gate)": "low polyreactivity"}
{"sequence": "QVQLVESGGGLVQAGGSLRLSCAASGRIFDRNAMGWYRQARGKARELVARIDPGDDTNYADSVKGRFTISRDNAKNKVYLQMNSLQPEDTAVYYCATDPDYVLYRTAYYEYDYWGQGTQVTVSS", "polyreactivity (PSR sort gate)": "low polyreactivity"}
{"sequence": "QVQLVESGGGLVQAGGSLRLSCAASGRIFDRYGMGWYRQAPGKERELLAAITSRGGSTYYADSVKGRFTISRDNAKNTVYLQMNSLKPEDTAVYYCAAYGRYGFGRVERYDYWGQGTQVTVSS", "polyreactivity (PSR sort gate)": "high polyreactivity"}
{"sequence": "QVQLVESGGGLVQAGGSLRLSCAASGRIFDSNAMGWYRPAPGKERELVAAISYDGGSTYYADSVKGRFTISRDNAKNTVYLQMNSLKPEDTAVYYCAADDGWYYYYGYDYWGQGTQVTVSS", "polyreactivity (PSR sort gate)": "low polyreactivity"}
{"sequence": "QVQLVESGGGLVQAGGSLRLSCAASGRIFDSNAMGWYRQAPGTEREFVAAITYSSGSTYYRNSVKGRFTISRDNAKNTVYLQMNSLKPEDTAVYYCAAVLYWRTLSSRYDYWGQGTQVTVSS", "polyreactivity (PSR sort gate)": "high polyreactivity"}
{"sequence": "QVQLVESGGGLVQAGGSLRLSCAASGRIFDTNAMGWYRQAPGKERELVAAISSSGGRTYYADSVKGRFTISRDNAKNTVYLQMNSLRPEDTAVYYCARVPITKDQYSHYYYWGQGTQVTVSS", "polyreactivity (PSR sort gate)": "high polyreactivity"}
{"sequence": "QVQLVESGGGLVQAGGSLRLSCAASGRIFDVYAMGWYRQAPGKERELVAAITWSGTSTYYADSVKGRFTISRDNAKNTVYLQMNSLKPEDTAVYYCAAEVAYTDTEYFWYYYWGQGTQVTVSS", "polyreactivity (PSR sort gate)": "high polyreactivity"}
{"sequence": "QVQLVESGGGLVQAGGSLRLSCAASGRIFDYNAMGWYRQAPGKERELVASITQRGDITYYADSVKGRFTISRDNAKNTVYLQMNSLKPEDTAVYYCNADGVRVWVLPYVLYTGDYWGQGTQVTVSS", "polyreactivity (PSR sort gate)": "low polyreactivity"}
{"sequence": "QVQLVESGGGLVQAGGSLRLSCAASGRIFDYYAMGWNRQAPGKERELVAAITWSGGNTYYADSVKGRFTISRDNAKNTVYLQMNSLKPEDTAVYYCAAEYYYLNDIYSEYDYWGQGTQVTVSS", "polyreactivity (PSR sort gate)": "high polyreactivity"}
{"sequence": "QVQLVESGGGLVQAGGSLRLSCAASGRIFDYYAMGWYRQAPGKERELVAAITSSTGSTYYADSVKGRFTISRDNAKNTVYLQMNSLKPEDTAVYYCAAERTYLDRGFDYWGQGTQVTVSS", "polyreactivity (PSR sort gate)": "low polyreactivity"}
{"sequence": "QVQLVESGGGLVQAGGSLRLSCAASGRIFEAYAMGWYRQAPGKERELVAAISGSGGSTYYADSVKGRFTISRDNAKNTVYLQMNSLKPEDTAVYYCAADDYYRVYWGQGTQVTVSS", "polyreactivity (PSR sort gate)": "high polyreactivity"}
{"sequence": "QVQLVESGGGLVQAGGSLRLSCAASGRIFEGYAMGWYRQAPGKERELVAAITGSGGGTYYADSVKGRFTISRDNAKNTVYLQMNSLKPEDTAVYYCATAYSAYQHPYGYWGKGTQVTVSS", "polyreactivity (PSR sort gate)": "low polyreactivity"}
{"sequence": "QVQLVESGGGLVQAGGSLRLSCAASGRIFEGYAMGWYRQAPGKERELVAAITGSGGGTYYADSVKGRFTISRDNAKNTVYLQMNSLKPEDTAVYYCATAYSAYQHPYGYWGQGTQVTVSS", "polyreactivity (PSR sort gate)": "low polyreactivity"}
{"sequence": "QVQLVESGGGLVQAGGSLRLSCAASGRIFEHNAMGWYRQAPGKEREFVAAISSSGGSTYYADSVKGRITISRDNAKNTVYLQMNSLKPVDTAVYYCNAGSTYYERNYWGQGTQVTVSS", "polyreactivity (PSR sort gate)": "low polyreactivity"}
{"sequence": "QVQLVESGGGLVQAGGSLRLSCAASGRIFEINTMGWYRQAPGKERELVAAISRGGGSTYYADSVKGRFTISRDNAKNTVYLQMNSLKPEDTAVYYCAAASYYVEGDYWGQGTQVTVSS", "polyreactivity (PSR sort gate)": "low polyreactivity"}
{"sequence": "QVQLVESGGGLVQAGGSLRLSCAASGRIFEIYAMGWYRQAPGTERELVAPISWRGVSTYYADSVKGRFTISRDNAKNTVYVQMNSLKAEDTAVYYCGPELGWGGFYKDGDASQFDYWGQGTQVTVSS", "polyreactivity (PSR sort gate)": "low polyreactivity"}
{"sequence": "QVQLVESGGGLVQAGGSLRLSCAASGRIFENNAMGWYRQAPGKERELVAAITSSGGRTYYADSVKGRFTISRDNAKNTVYLQMNSLIPEDTAVYYCNAYQYYERYDTYLFRYDYWGQGTQVTVSS", "polyreactivity (PSR sort gate)": "low polyreactivity"}
{"sequence": "QVQLVESGGGLVQAGGSLRLSCAASGRIFESYAMGWYRQAPGKERELVAAISRSGGSTYYADSVKGRFTISRDNAKNTVYLQMNSLKPEDTAVYYCNTYYYHHYDYWGQGTQVTVSS", "polyreactivity (PSR sort gate)": "high polyreactivity"}
{"sequence": "QVQLVESGGGLVQAGGSLRLSCAASGRIFEYYAMGWYRQAPGKERELVAAINTGGNTYYADSVKGRFTISRDNAKNTVYLLMNSLKPEDTAVYYCATYPIWYGGYLSGTDYDYWGQGTQVTVSS", "polyreactivity (PSR sort gate)": "low polyreactivity"}
{"sequence": "QVQLVESGGGLVQAGGSLRLSCAASGRIFEYYVMGWYRQAPGKERELVAAINRRGTSTYYADSVKGRFTISRDNAKNTVDLQMNSLKPEDTAVYYCAAVDRDYARTTTYDYCGQGTQVTVSS", "polyreactivity (PSR sort gate)": "high polyreactivity"}
{"sequence": "QVQLVESGGGLVQAGGSLRLSCAASGRIFFGNAMGWYRLAPGKEREFVAAITWRGGNTYYADSVKGRFTISRDNAKNTVYLQMNSLKPEDTAVYDCNASPSEVRRRYDYWGQGTQVTVSS", "polyreactivity (PSR sort gate)": "high polyreactivity"}
{"sequence": "QVQLVESGGGLVQAGGSLRLSCAASGRIFFGYAMGWYRPAPGKEREFVAAINWIGGRTYYAASVKGRFTISRDNAKNTVYLQMNSLKPEDTAVYYCAKEVSPYWTFDYWGQGTQVTVSS", "polyreactivity (PSR sort gate)": "low polyreactivity"}
{"sequence": "QVQLVESGGGLVQAGGSLRLSCAASGRIFFGYAMGWYRPAPGKERVLVAAISSRGGSTYYADSVKGRFTISRDNAKNTVYLKMNSLKPEDTAVYYCARKRYKRSTRTEFGYWGQGTQVTVSS", "polyreactivity (PSR sort gate)": "high polyreactivity"}
{"sequence": "QVQLVESGGGLVQAGGSLRLSCAASGRIFFGYAMGWYRQAPGKEREFVAAINWIGGRTYYADSVKGRFTISRDNAKNTVYLQMNSLKPEDTAVYYCAKEVSPYWTFDYWGQGSQVTVSS", "polyreactivity (PSR sort gate)": "low polyreactivity"}
{"sequence": "QVQLVESGGGLVQAGGSLRLSCAASGRIFFGYAMGWYRQAPGKEREFVAAITRRGGSTYYADSVKGRFTISRDNAKNTVYLQMNSLKPEDTADYYCAKDTIGGASPHYYWGQGTQVTVSS", "polyreactivity (PSR sort gate)": "high polyreactivity"}
{"sequence": "QVQLVESGGGLVQAGGSLRLSCAASGRIFFIYAMGWYRQAPGKERELVAAISYDSGSTYYADSVKGRFTISRDNAKNTVYLQMNSLKPEDTAVYYCAAEWGLVIYSTYGYDYWGQGTQVTVSS", "polyreactivity (PSR sort gate)": "low polyreactivity"}
{"sequence": "QVQLVESGGGLVQAGGSLRLSCAASGRIFFIYPMGWYRQAPGKERELVAGINRTGGSTYYADSVKGRFTISRDNAKNTVYLQMNSLKPEDTAVYYCAAVSYYASDYRYDYWGQGTQVTVSS", "polyreactivity (PSR sort gate)": "low polyreactivity"}
{"sequence": "QVQLVESGGGLVQAGGSLRLSCAASGRIFFLNTMGWYRQAPGKERELVAAITRGGSTYYADSVKGRFTISRDNAKNTVYLHMNSLKPEDTAVYYCAADVYGGIGYDYWGQGTQVTVSS", "polyreactivity (PSR sort gate)": "low polyreactivity"}
{"sequence": "QVQLVESGGGLVQAGGSLRLSCAASGRIFFLNTMGWYRQAPGTERELVAAITRGGSTYYADSVKGRFTISRDNAKNTVYLQMNSLKPEDTAVYYCAADVYGGIGYDYWGQGTQVTVSS", "polyreactivity (PSR sort gate)": "low polyreactivity"}
{"sequence": "QVQLVESGGGLVQAGGSLRLSCAASGRIFFRNALGWYRQAPGKERELVAVINTGGSTNYADSVKGRFTISRDNAKNTVYLQMNSLTPEDTAVYYCAVDRASRRTYNQYGYWGQGTQVTVSS", "polyreactivity (PSR sort gate)": "high polyreactivity"}
{"sequence": "QVQLVESGGGLVQAGGSLRLSCAASGRIFFSYAMGWYRQAPGKERELVAAISRSGGRTYYADSVKGRFTISRDNAKNTVYLQMNSLKPEDTAVYYCAASSISSLYYDYWGQGTQVTVSS", "polyreactivity (PSR sort gate)": "high polyreactivity"}
{"sequence": "QVQLVESGGGLVQAGGSLRLSCAASGRIFFVNAMGWSRQAPGKERELVAAISRGGSTNYADSVKGRFTISRDNAKNTVYLQMNSLKPEDTAVYYCNADGSSYWYPVPLDGGDYWGQGTQVTVSS", "polyreactivity (PSR sort gate)": "low polyreactivity"}
{"sequence": "QVQLVESGGGLVQAGGSLRLSCAASGRIFFYNVMGWYRQAHGKERELVAAITTIGGSTYYADSVKGRFTISRDNAMNTVYLQMNSLKPEDTAVYYCAAGWVTNSDGMDYWGQGTQVTVSS", "polyreactivity (PSR sort gate)": "low polyreactivity"}
{"sequence": "QVQLVESGGGLVQAGGSLRLSCAASGRIFFYNVMGWYRQAPGKERELVAAITTIGGSTYYADSVKGRFTISRDNAKNTVYLQMNSLKPEDTAVYYCAAGWVTNSDGMDYWGQGTQVTVSS", "polyreactivity (PSR sort gate)": "low polyreactivity"}
{"sequence": "QVQLVESGGGLVQAGGSLRLSCAASGRIFFYYAMGWYRQAPGKERELVAAISKSGGRTYYADSVKGRFTISRDNAKNTVYLQMNSLKPEDTAVYYCAAYSAHDSDYWGQGTQVTVSS", "polyreactivity (PSR sort gate)": "high polyreactivity"}
{"sequence": "QVQLVESGGGLVQAGGSLRLSCAASGRIFFYYAMGWYRQAPGKERELVATITASGDSTYYADSVKGRFTISRDNAMDTVYLQMNSLKPEDTAVYYCAADDGDYYEVDYWGQGTQVTVSS", "polyreactivity (PSR sort gate)": "low polyreactivity"}
